# Changes are numbered by the printed parent chain. Names may count otherwise.
# B1: S362A: NTR point mutant (protein, UniProt P20789 1-424, looked up, variant S362A)
# Neurotensin receptor type 1: MHLNSSVPQGTPGEPDAQPFSGPQSEMEATFLALSLSNGSGNTSESDTAGPNSDLDVNTDIYSKVLVTAIYLALFVVGTVGNSVTAFTLARKKSLQSLQSTVHYHLGSLALSDLLILLLAMPVELYNFIWVHHPWAFGDAGCRGYYFLRDACTYATALNVASLSVERYLAICHPFKAKTLMSRSRTKKFISAIWLASALLAIPMLFTMGLQNRSGDGTHPGGLVCTPIVDTATVKVVIQVNTFMSFLFPMLVISILNTVIANKLTVMVHQAAEQGRVCTVGTHNGLEHSTFNMTIEPGRVQALRHGVLVLRAVVIAFVVCWLPYHVRRLMFCYISDEQWTTFLFDFYHYFYMLTNALFYVSAAINPILYNLVSANFRQVFLSTLACLCPGWRHRRKKRPTFSRKPNSMSSNHAFSTSATRETLY
# B2: Y351A: NTR point mutant (protein, UniProt P20789 1-424, looked up, variant Y351A)
# Neurotensin receptor type 1: B1 Neurotensin receptor type 1 with Y351A, A362S
# B3: S182A: NTR point mutant (protein, UniProt P20789 1-424, looked up, variant S182A)
# Neurotensin receptor type 1: B1 Neurotensin receptor type 1 with S182A, A362S
# B4: M293A: NTR point mutant (protein, UniProt P20789 1-424, looked up, variant M293A)
# Neurotensin receptor type 1: B1 Neurotensin receptor type 1 with M293A, A362S
# B5: T207A: NTR point mutant (protein, UniProt P20789 1-424, looked up, variant T207A)
# Neurotensin receptor type 1: B1 Neurotensin receptor type 1 with T207A, A362S
# B6: T179A: NTR point mutant (protein, UniProt P20789 1-424, looked up, variant T179A)
# Neurotensin receptor type 1: B1 Neurotensin receptor type 1 with T179A, A362S
# B7: F189A: NTR point mutant (protein, UniProt P20789 1-424, looked up, variant F189A)
# Neurotensin receptor type 1: B1 Neurotensin receptor type 1 with F189A, A362S
# B8: S100A: NTR point mutant (protein, UniProt P20789 1-424, looked up, variant S100A)
# Neurotensin receptor type 1: B1 Neurotensin receptor type 1 with S100A, A362S
# B9: D139A: NTR point mutant (protein, UniProt P20789 1-424, looked up, variant D139A)
# Neurotensin receptor type 1: B1 Neurotensin receptor type 1 with D139A, A362S
# B10: F147A: NTR point mutant (protein, UniProt P20789 1-424, looked up, variant F147A)
# Neurotensin receptor type 1: B1 Neurotensin receptor type 1 with F147A, A362S
# B11: W391A: NTR point mutant (protein, UniProt P20789 1-424, looked up, variant W391A)
# Neurotensin receptor type 1: B1 Neurotensin receptor type 1 with A362S, W391A
# B12: V268A: NTR point mutant (protein, UniProt P20789 1-424, looked up, variant V268A)
# Neurotensin receptor type 1: B1 Neurotensin receptor type 1 with V268A, A362S
# B13: A155L: NTR point mutant (protein, UniProt P20789 1-424, looked up, variant A155L)
# Neurotensin receptor type 1: B1 Neurotensin receptor type 1 with A155L, A362S
# B14: N262A: NTR point mutant (protein, UniProt P20789 1-424, looked up, variant N262A)
# Neurotensin receptor type 1: B1 Neurotensin receptor type 1 with N262A, A362S
# B15: L256A: NTR point mutant (protein, UniProt P20789 1-424, looked up, variant L256A)
# Neurotensin receptor type 1: B1 Neurotensin receptor type 1 with L256A, A362S
# B16: L109A: NTR point mutant (protein, UniProt P20789 1-424, looked up, variant L109A)
# Neurotensin receptor type 1: B1 Neurotensin receptor type 1 with L109A, A362S
# B17: Nag7n: NTR mutant F358A+H103A+I260A+F342A (protein)
# chain: TSESDTAGPNSDLDVNTDIYSKVLVTAIYLALFVVGTVGNSVTAFTLARKKSLQSLQSTVAYHLGSLALSDLLILLLAMPVELYNFIWVHHPWAFGDAGCRGYYFLRDACTYATALNVASLSVERYLAICHPFKAKTLMSRSRTKKFISAIWLASALLAIPMLFTMGLQNRSGDGTHPGGLVCTPIVDTATVKVVIQVNTFMSFLFPMLVISILNTVAANKLTVMVHQAAEQGRVCTVGTHNGLEHSTFNMTIEPGRVQALRHGVLVLRAVVIAFVVCWLPYHVRRLMFCYISDEQWTTALFDFYHYFYMLTNALAYVSSAINPILYNLVSANFRQVFLSTLACLCPGWRHRRKKRPTFSRKPNSMSSNHAFSTSATRETLY
# B18: Wildtype NTR: rat neurotensin receptor, parent (protein)
# chain: B17 chain with A61H, A218I, A300F, A316F
# Test: Thermostability of NTR and mutants (3H-neurotensin binding)
# Format: physicochemical
# Details: Ligand(+) format
# Protocol: FIG. 12 Flow chart showing the two different assay formats of ligand (+) and ligand (−) used to determine receptor thermostability.
# • 1. 340 site-directed mutants have been made between residues 61-400 of NTR. • 2. Initially, all of these mutants were assayed for thermostability using an assay measuring ^3H-neurotensin (agonist) binding after the heating step. […] Mutants tested for thermostability by heating in the absence of the agonist were re-tested using a slightly different assay where the mutants were heated in the presence of ^3H-neurotensin (Ligand(+) format in FIG. 12). […] All of these also have increased thermostability. • 5. Preferred combinations are • a. Nag7m F358A+A86L+I260A+F342A Tm 51° C. (neurotensin bound) • b. Nag7n F358A+H103A+I260A+F342A Tm 51° C. (neurotensin bound) • Wildtype NTR has a Tm of 35° C. with neurotensin bound.
row,Molecule,"thermostability, heated in the presence of 3H-neurotensin"
1,B1,improved thermostability

# Same assay, conditions: heated in the absence of the agonist
row,Molecule,"thermostability, 3H-neurotensin (agonist) binding after the heating step"
1,B2,small but significant increase in thermostability
2,B3,small but significant increase in thermostability
3,B4,small but significant increase in thermostability
4,B5,small but significant increase in thermostability
5,B6,small but significant increase in thermostability
6,B7,small but significant increase in thermostability
7,B8,small but significant increase in thermostability
8,B9,small but significant increase in thermostability
9,B10,small but significant increase in thermostability
10,B11,small but significant increase in thermostability
11,B12,small but significant increase in thermostability
12,B13,small but significant increase in thermostability
13,B1,small but significant increase in thermostability
14,B14,small but significant increase in thermostability
15,B15,small but significant increase in thermostability
16,B16,small but significant increase in thermostability

# Same assay, conditions: neurotensin bound
row,Molecule,Tm [°C]
1,B17,51
2,B18,35

# Reference: patent US8785135B2, “Mutant G-protein coupled receptors and methods for selecting them” (Heptares Therapeutics Limited, priority 2007, dated 2014)
